Experiment: Phase 1/2 MRZ + BEV and MRZ monotherapy in recurrent G4 MG: adverse events, DLT
Settings: MRZ+BEV
Experimental: The clinical trial was a Phase 1, dose-escalation (3+3 design) followed by dose-expansion at recommended Phase 2 Dose (RP2D).
The drugs were infused on 28-Day Cycles. Tumor response is assessed every other cycle by RANO criteria.
The safety data will be presented in individual listings and summary tables, including frequency tables for adverse events and frequency and shift tables for laboratory variables. The safety population will be all subjects who received at least one dose of either study drug in Phase 1 or MRZ in Phase 2.

In the case of bevacizumab [reference compound], the “Ear Infection: # pts, related to BEV” value (12 Sep. 2016) was 0, the “Epistaxis: # pts, related to BEV” value (12 Sep. 2016) was 7 and the “Falls: # pts, related to BEV” value (12 Sep. 2016) was 0. The “Fatigue: # pts, related to BEV” value (12 Sep. 2016) was 0, the “Fracture of Femur: # pts, related to BEV” value (12 Sep. 2016) was 0 and the “Hallucination: # pts, related to BEV” value (12 Sep. 2016) was 0. For the same substance, the “Headache: # pts, related to BEV” value (12 Sep. 2016) was 1, the “Hemiparesis: # pts, related to BEV” value (12 Sep. 2016) was 0 and the “Hyperglycemia: # pts, related to BEV” value (12 Sep. 2016) was 0. The “Hypertension: # pts, related to BEV” value (12 Sep. 2016) was 13, the “Hypokalemia: # pts, related to BEV” value (12 Sep. 2016) was 0 and the “Hyponatremia: # pts, related to BEV” value (12 Sep. 2016) was 0. The “Hypotension: # pts, related to BEV” value (12 Sep. 2016) was 0, the “Infusion Site Pain: # pts, related to BEV” value (12 Sep. 2016) was 0 and the “Insomnia: # pts, related to BEV” value (12 Sep. 2016) was 1. The “Lymphocyte Count Decreased: # pts, related to BEV” value (12 Sep. 2016) was 0, the “Muscular Weakness: # pts, related to BEV” value (12 Sep. 2016) was 0 and the “Nausea: # pts, related to BEV” value (12 Sep. 2016) was 0. For the same substance, the “Optic Nerve Disorder: # pts, related to BEV” value (12 Sep. 2016) was 1, the “Pyramidal Tract Syndrome: # pts, related to BEV” value (12 Sep. 2016) was 0 and the “Tumor Metastasis: # pts, related to BEV” value (12 Sep. 2016) was 0. For the same substance, the “Vision Blurred: # pts, related to BEV” value (12 Sep. 2016) was 0, the “Vomiting: # pts, related to BEV” value (12 Sep. 2016) was 0 and the “Anaemia: # events related to BEV” value (17 May 2016) was 0. The “Aphasia: # events related to BEV” value (17 May 2016) was 0, the “Appendicitis Perforated: # events related to BEV” value (17 May 2016) was 0 and the “Asthenia: # events related to BEV” value (17 May 2016) was 0. For the same substance, the “Ataxia: # events related to BEV” value (17 May 2016) was 0, the “Confusional State: # events related to BEV” value (17 May 2016) was 0 and the “Constipation: # events related to BEV” value (17 May 2016) was 0. The “Convulsion: # events related to BEV” value (17 May 2016) was 0, the “Delusion: # events related to BEV” value (17 May 2016) was 0 and the “Diarrhoea: # events related to BEV” value (17 May 2016) was 0. For the same substance, the “Dizziness: # events related to BEV” value (17 May 2016) was 0, the “Dysarthria: # events related to BEV” value (17 May 2016) was 0 and the “Dysphagia: # events related to BEV” value (17 May 2016) was 0. For the same substance, the “Dysphonia: # events related to BEV” value (17 May 2016) was 10, the “Dyspnoea: # events related to BEV” value (17 May 2016) was 0 and the “Ear Infection: # events related to BEV” value (17 May 2016) was 0. The “Embolism: # events related to BEV” value (17 May 2016) was 1, the “Epistaxis: # events related to BEV” value (17 May 2016) was 8 and the “Fatigue: # events related to BEV” value (17 May 2016) was 0. The “Hallucination: # events related to BEV” value (17 May 2016) was 0, the “Hemiparesis: # events related to BEV” value (17 May 2016) was 0 and the “Hyperglycemia: # events related to BEV” value (17 May 2016) was 0. For the same substance, the “Hypokalemia: # events related to BEV” value (17 May 2016) was 0, the “Hypotension: # events related to BEV” value (17 May 2016) was 0 and the “Insomnia: # events related to BEV” value (17 May 2016) was 0. The “Lymphocyte Count Decreased: # events related to BEV” value (17 May 2016) was 0, the “Muscular Weakness: # events related to BEV” value (17 May 2016) was 0 and the “Nausea: # events related to BEV” value (17 May 2016) was 0. For the same substance, the “Pyramidal Tract Syndrome: # events related to BEV” value (17 May 2016) was 0, the “Vomiting: # events related to BEV” value (17 May 2016) was 0 and the “Anaemia: # patients, AE related to labelled agent (BEV, MRZ, Both)” value (36 pts, as of 12 Sep. 2016) was 0. For the same substance, the “Anxiety: # patients, AE related to labelled agent (BEV, MRZ, Both)” value (36 pts, as of 12 Sep. 2016) was 0, the “Aphasia: # patients, AE related to labelled agent (BEV, MRZ, Both)” value (36 pts, as of 12 Sep. 2016) was 0 and the “Appendicitis Perforated: # patients, AE related to labelled agent (BEV, MRZ, Both)” value (36 pts, as of 12 Sep. 2016) was 0. For the same substance, the “Asthenia: # patients, AE related to labelled agent (BEV, MRZ, Both)” value (36 pts, as of 12 Sep. 2016) was 0, the “Ataxia: # patients, AE related to labelled agent (BEV, MRZ, Both)” value (36 pts, as of 12 Sep. 2016) was 0 and the “Confusional State: # patients, AE related to labelled agent (BEV, MRZ, Both)” value (36 pts, as of 12 Sep. 2016) was 0. The “Constipation: # patients, AE related to labelled agent (BEV, MRZ, Both)” value (36 pts, as of 12 Sep. 2016) was 0, the “Convulsion: # patients, AE related to labelled agent (BEV, MRZ, Both)” value (36 pts, as of 12 Sep. 2016) was 0 and the “Delusion: # patients, AE related to labelled agent (BEV, MRZ, Both)” value (36 pts, as of 12 Sep. 2016) was 0. For the same substance, the “Depressed Level of Consciousness: # patients, AE related to labelled agent (BEV, MRZ, Both)” value (36 pts, as of 12 Sep. 2016) was 0, the “Diarrhoea: # patients, AE related to labelled agent (BEV, MRZ, Both)” value (36 pts, as of 12 Sep. 2016) was 0 and the “Dizziness: # patients, AE related to labelled agent (BEV, MRZ, Both)” value (36 pts, as of 12 Sep. 2016) was 0. The “Dysarthria: # patients, AE related to labelled agent (BEV, MRZ, Both)” value (36 pts, as of 12 Sep. 2016) was 0, the “Dysphagia: # patients, AE related to labelled agent (BEV, MRZ, Both)” value (36 pts, as of 12 Sep. 2016) was 0 and the “Dysphonia: # patients, AE related to labelled agent (BEV, MRZ, Both)” value (36 pts, as of 12 Sep. 2016) was 10. The “Dyspnoea: # patients, AE related to labelled agent (BEV, MRZ, Both)” value (36 pts, as of 12 Sep. 2016) was 0, the “Ear Infection: # patients, AE related to labelled agent (BEV, MRZ, Both)” value (36 pts, as of 12 Sep. 2016) was 0 and the “Epistaxis: # patients, AE related to labelled agent (BEV, MRZ, Both)” value (36 pts, as of 12 Sep. 2016) was 7. For the same substance, the “Falls: # patients, AE related to labelled agent (BEV, MRZ, Both)” value (36 pts, as of 12 Sep. 2016) was 0, the “Fatigue: # patients, AE related to labelled agent (BEV, MRZ, Both)” value (36 pts, as of 12 Sep. 2016) was 0 and the “Fracture of Femur: # patients, AE related to labelled agent (BEV, MRZ, Both)” value (36 pts, as of 12 Sep. 2016) was 0. The “Hallucination: # patients, AE related to labelled agent (BEV, MRZ, Both)” value (36 pts, as of 12 Sep. 2016) was 0, the “Headache: # patients, AE related to labelled agent (BEV, MRZ, Both)” value (36 pts, as of 12 Sep. 2016) was 1 and the “Hemiparesis: # patients, AE related to labelled agent (BEV, MRZ, Both)” value (36 pts, as of 12 Sep. 2016) was 0. The “Hyperglycemia: # patients, AE related to labelled agent (BEV, MRZ, Both)” value (36 pts, as of 12 Sep. 2016) was 0, the “Hypertension: # patients, AE related to labelled agent (BEV, MRZ, Both)” value (36 pts, as of 12 Sep. 2016) was 13 and the “Hypokalemia: # patients, AE related to labelled agent (BEV, MRZ, Both)” value (36 pts, as of 12 Sep. 2016) was 0. The “Hyponatremia: # patients, AE related to labelled agent (BEV, MRZ, Both)” value (36 pts, as of 12 Sep. 2016) was 0, the “Hypotension: # patients, AE related to labelled agent (BEV, MRZ, Both)” value (36 pts, as of 12 Sep. 2016) was 0 and the “Infusion Site Pain: # patients, AE related to labelled agent (BEV, MRZ, Both)” value (36 pts, as of 12 Sep. 2016) was 0. The “Insomnia: # patients, AE related to labelled agent (BEV, MRZ, Both)” value (36 pts, as of 12 Sep. 2016) was 1, the “Lymphocyte Count Decreased: # patients, AE related to labelled agent (BEV, MRZ, Both)” value (36 pts, as of 12 Sep. 2016) was 0 and the “Muscular Weakness: # patients, AE related to labelled agent (BEV, MRZ, Both)” value (36 pts, as of 12 Sep. 2016) was 0. For the same substance, the “Nausea: # patients, AE related to labelled agent (BEV, MRZ, Both)” value (36 pts, as of 12 Sep. 2016) was 0, the “Optic Nerve Disorder: # patients, AE related to labelled agent (BEV, MRZ, Both)” value (36 pts, as of 12 Sep. 2016) was 1 and the “Pyramidal Tract Syndrome: # patients, AE related to labelled agent (BEV, MRZ, Both)” value (36 pts, as of 12 Sep. 2016) was 0. The “Tumor Metastasis: # patients, AE related to labelled agent (BEV, MRZ, Both)” value (36 pts, as of 12 Sep. 2016) was 0, the “Vision Blurred: # patients, AE related to labelled agent (BEV, MRZ, Both)” value (36 pts, as of 12 Sep. 2016) was 0 and the “Vomiting: # patients, AE related to labelled agent (BEV, MRZ, Both)” value (36 pts, as of 12 Sep. 2016) was 0.
